Test results from patent US20260174875A1 (Novo Nordisk A/S, priority 2023, published 2026).
Blank lines part the entries; values can stand above or below the binder they belong to. Numbered stars: 1 amine (or outer) side, 2 acyl side, 3 side chain; on linkers, the order of the positions; unused ones are H or OH. Square brackets hold non-standard residues; d marks the D form. Side chains are listed from the residue outwards. * marks the point of attachment. Chem. 22 = C20 diacid gamma-Glu, O=C(O)CCCCCCCCCCCCCCCCCCC(=O)N[C@@H](CCC(=O)*)C(=O)O; C18 diacid = O=C(O)CCCCCCCCCCCCCCCCC(=O)*; γGlu = O=C(O)[C@H](CCC(=O)[*:2])N[*:1]; Chem. 28 = not defined here; Chem. 29 = not defined here; AEEA = NCCOCCOCC(=O)O; Aib = CC(C)(N)C(=O)O

What was measured:
Test in all cases: cell-based or functional assay
human GLP-1 receptor = human GLP-1 receptor (human, UniProt P43220 24-463)
[1] = target: T1, human amylin-3(a) receptor (human, UniProt P30988 25-474; O60896 24-148)
T1 sequence (looked up) 1: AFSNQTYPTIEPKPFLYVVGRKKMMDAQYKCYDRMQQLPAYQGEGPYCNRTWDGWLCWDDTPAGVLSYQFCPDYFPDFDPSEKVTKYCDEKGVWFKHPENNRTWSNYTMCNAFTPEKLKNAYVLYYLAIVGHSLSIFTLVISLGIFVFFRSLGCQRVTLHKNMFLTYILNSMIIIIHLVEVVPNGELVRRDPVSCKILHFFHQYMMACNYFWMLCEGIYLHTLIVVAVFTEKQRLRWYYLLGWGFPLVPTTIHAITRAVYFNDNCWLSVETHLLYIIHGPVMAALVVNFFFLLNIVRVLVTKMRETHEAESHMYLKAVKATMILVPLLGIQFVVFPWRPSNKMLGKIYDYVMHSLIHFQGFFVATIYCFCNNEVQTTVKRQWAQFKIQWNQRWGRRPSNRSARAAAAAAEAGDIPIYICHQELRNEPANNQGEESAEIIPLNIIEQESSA
T1 sequence (looked up) 2: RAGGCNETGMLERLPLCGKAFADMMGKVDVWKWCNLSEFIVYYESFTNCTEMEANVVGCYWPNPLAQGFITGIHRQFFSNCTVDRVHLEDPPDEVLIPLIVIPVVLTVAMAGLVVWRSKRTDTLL

human GIP receptor = target: T2, human GIP receptor (human, UniProt P48546 22-466)
T2 sequence (looked up): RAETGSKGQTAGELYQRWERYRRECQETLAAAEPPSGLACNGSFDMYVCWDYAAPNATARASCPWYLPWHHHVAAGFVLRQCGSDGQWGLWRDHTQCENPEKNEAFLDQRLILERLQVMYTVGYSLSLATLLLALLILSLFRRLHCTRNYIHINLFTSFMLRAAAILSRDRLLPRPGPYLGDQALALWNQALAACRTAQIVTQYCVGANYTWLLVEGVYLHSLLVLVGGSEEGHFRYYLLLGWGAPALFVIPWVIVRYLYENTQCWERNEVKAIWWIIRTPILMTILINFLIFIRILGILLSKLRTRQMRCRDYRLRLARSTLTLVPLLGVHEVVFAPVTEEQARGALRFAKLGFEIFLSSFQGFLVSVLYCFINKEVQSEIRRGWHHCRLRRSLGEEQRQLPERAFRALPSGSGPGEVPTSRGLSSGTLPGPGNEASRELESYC

hGLP-1R Potency, no HSA, EC50 [pM] (human GLP-1 receptor): 5.25 pM
hAMYR3 Potency, no HSA, EC50 [pM] [1]: 2.32 pM
hGIPR Potency, no HSA, EC50 [pM] (human GIP receptor): 2.39 pM
B1: Compound 66 (peptide)
peptide: H[Aib]HGTFTSDYSILLEEQAAREFIEWLLAGGPSK([AEEA-AEEA-γGlu-C18 diacid])GEASQLSTAALGRLSAELHHLATLPRTETGSGSP-NH2

hGLP-1R Potency, no HSA, EC50 [pM] (human GLP-1 receptor): 28.8 pM
hAMYR3 Potency, no HSA, EC50 [pM] [1]: 3.02 pM
hGIPR Potency, no HSA, EC50 [pM] (human GIP receptor): 5.56 pM
B2: Compound 54 (peptide)
peptide: Y[Aib]EGTFTSDYSILLEEQAAREFIEWLLAGGPSSGAGQAPGQAPGASK(Chem. 28)LSTAQTQRLSAELHRLATLPRTETGSGSP-NH2
modifications: reading uncertain

hGLP-1R Potency, no HSA, EC50 [pM] (human GLP-1 receptor): 11.3 pM
hAMYR3 Potency, no HSA, EC50 [pM] [1]: 10.9 pM
hGIPR Potency, no HSA, EC50 [pM] (human GIP receptor): 35.8 pM
B3: Compound 22 (peptide)
peptide: H[Aib]HGTFTSDYSILLEEQAAREFIEWLLAGGPSK(Chem. 28)GAPPPSLAQTLAQTLASELSTAALGRLSAELHELATLPRTETGSGSP-NH2
modifications: reading uncertain

hGLP-1R Potency, no HSA, EC50 [pM] (human GLP-1 receptor): 41.2 pM
hAMYR3 Potency, no HSA, EC50 [pM] [1]: 12 pM
hGIPR Potency, no HSA, EC50 [pM] (human GIP receptor): 8.63 pM
B4: Compound 21 (peptide)
peptide: Y[Aib]EGTFTSDYSILLEEQAAREFIEWLLAGGPSK(Chem. 28)GALAQTLAQTLASELSTAALGRLSAELHELATLPRTETGSGSP-NH2
modifications: reading uncertain

hGLP-1R Potency, no HSA, EC50 [pM] (human GLP-1 receptor): 61.3 pM
hAMYR3 Potency, no HSA, EC50 [pM] [1]: 3.42 pM
hGIPR Potency, no HSA, EC50 [pM] (human GIP receptor): 8.01 pM
B5: Compound 42 (peptide)
peptide: Y[Aib]EGTFTSDYSILLEEQAAREFIEWLLAGGPSSK(Chem. 22)APPPSGGGEASELSTAALGRLSAELHRLATLPRTETGSGSP-NH2

hGLP-1R Potency, no HSA, EC50 [pM] (human GLP-1 receptor): 32.1 pM
hAMYR3 Potency, no HSA, EC50 [pM] [1]: 10.3 pM
hGIPR Potency, no HSA, EC50 [pM] (human GIP receptor): 3.11 pM
B6: Compound 33 (peptide)
peptide: Y[Aib]EGTFTSDYSILLEEQAAREFIEWLLAGGPSK(Chem. 28)GAPPEASELSTAALGRLSAELHELATLPRTETGSGSP-NH2
modifications: reading uncertain

hGLP-1R Potency, no HSA, EC50 [pM] (human GLP-1 receptor): 21.7 pM
hAMYR3 Potency, no HSA, EC50 [pM] [1]: 6.81 pM
hGIPR Potency, no HSA, EC50 [pM] (human GIP receptor): 1.7 pM
B7: Compound 34 (peptide)
peptide: Y[Aib]EGTFTSDYSILLEEQAAREFIEWLLAGGPSK(Chem. 28)GEASHLSTAQTQRLSAELHELATLPRTETGSGSP-NH2
modifications: reading uncertain

hGLP-1R Potency, no HSA, EC50 [pM] (human GLP-1 receptor): 23.3 pM
hAMYR3 Potency, no HSA, EC50 [pM] [1]: 5.49 pM
hGIPR Potency, no HSA, EC50 [pM] (human GIP receptor): 1.63 pM
B8: Compound 40 (peptide)
peptide: Y[Aib]EGTFTSDYSILLEEQAAREFIEWLLAGGPSK(Chem. 28)GGGGEGGGEGEASHLSTAQTQRLSAELHELATLPRTETGSGSP-NH2
modifications: reading uncertain; also: VARIANT 50 Aib (position 50 is T), mods: Aib at 2

hGLP-1R Potency, no HSA, EC50 [pM] (human GLP-1 receptor): 40.8 pM
hAMYR3 Potency, no HSA, EC50 [pM] [1]: 6.72 pM
hGIPR Potency, no HSA, EC50 [pM] (human GIP receptor): 5.02 pM
B9: Compound 41 (peptide)
peptide: Y[Aib]EGTFTSDYSILLEEQAAREFIEWLLAGGPSK(Chem. 22)GAPPPSGGGEASELSTAALGRLSAELHRLADLPRTETGSGSP-NH2

hGLP-1R Potency, no HSA, EC50 [pM] (human GLP-1 receptor): 40.6 pM
hAMYR3 Potency, no HSA, EC50 [pM] [1]: 3.65 pM
hGIPR Potency, no HSA, EC50 [pM] (human GIP receptor): 4.82 pM
B10: Compound 20 (peptide)
peptide: Y[Aib]EGTFTSDYSILLEEQAAREFIEWLLAGGPSK(Chem. 29)GASELSTAALGRLSAELHRLATLPRTETGSGSP-NH2
modifications: reading uncertain
